Test results reported in EP0920630B1.

Molecular target: PrPBPs (prion protein binding proteins) on the surface of G8 cells (mouse muscle cell line)
Experiment: Scatchard analysis, bound AP activity on G8 cells

Work on “PrP-AP fusion protein (murine PrP fused to secreted human placental heat-stable alkaline phosphatase) (from UniProt P04925 23-229; P05187 23-511)” yielded a Kd of 1.48 nM and a PrP-AP binding sites (Bmax) (binding sites) of 100000.
